According to the supplement of paper PMC9170038:

Test system: MS2 coat protein
Experiment: apparent KD of MS2 coat protein; designed switch direction (-1 OFF switch, 1 ON switch): 1; higher = weaker reporter binding
How it was run: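 Three titration conditions were used: no input, 200 uM small-molecule ligand, and an oligonucleotide input. In each, SNAP-549-labelled MS2 coat protein was raised from 0.7 or 1.5 nM, doubling, to 3 µM over designed RNA switches transcribed on Illumina chips by stalled E. coli RNA polymerase. Curve fits of normalised cluster fluorescence gave values whose per-design median over clusters is the apparent KD.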

[1] = Eterna round: R95, input ligand: FMN 200 uM
[2] = Eterna round: R95, input ligand: microRNA oligo, concentration not stated
[3] = Eterna round: R95, input ligand: none
[4] = input ligand: microRNA oligo, concentration not stated

Sequence	apparent KD of MS2 coat protein [1] [µM]	apparent KD of MS2 coat protein [2] [µM]	apparent KD of MS2 coat protein [3] [µM]	apparent KD of MS2 coat protein [4] [µM]	apparent KD of MS2 coat protein (input ligand: FMN 200 uM) [µM]	apparent KD of MS2 coat protein (input ligand: none) [µM]
AUUUAACAAGCUUUUUGCUCGUCUUAUAAACAUGAGGAUCACCCAUGUAAUAGCGUGAGAGUAAUUAAUUAAAUAAU [JMF 90] (puzzle: Sensor for hsa-mir-208a)	0.0146	0.0469	0.0133	–	–	–
UCUUGGUUUUUGCUCGUUUUUUGUGUUGAACAUGAGGAUCACCCAUGUAUUGUACGGUCCAGUUUGGUAAUGGUCCG [JMF 35] (puzzle: Sensor for hsa-mir-208a)	0.025	0.0149	0.0264	–	–	–
UGUUGUAUUACAGGAUAUCUAUUGUUUUUAUUUAGAGAAGGGUAUUCACAUGAGGAUCACCCAUGUAUAUACGAGGAAGUUGUG [JMF's solution 12] (Eterna round: R96, puzzle: Same State NG 1)	–	–	–	0.0406	–	–
GCCGCGUUUCGCGCCUACAUGAGGAUCACCCAUGUUUGUAGGCAGGAUAUCGUUUGCUUUGCAACCGAGAAGGGCUGUUGUGGC [salish99_SSNG3_R04_013] (Eterna round: R96, puzzle: Same State NG 3)	–	–	–	0.0384	0.0516	0.0555
GAAGGAUGAGCGUAGGAUAUAGGAGGAGUGACAUGAGGAUCACCCAUGUGGUAUGAGGGAGGAUUCUAGAAGGACGCGGUAGAAG [JR_SS2_Sub065] (puzzle: Same State 2)	0.0899	0.15	0.161	–	–	–
GUAAUCGUUAUAGGAUAUCAUGAGGAUUACCCAUGAGAAGGGUGAUUCCGAUCCAUAUUCAGAAAAUGAAUGUGGAUAGAUUGC [Omei NG1 A v1] (Eterna round: R96, puzzle: Same State NG 1)	–	–	–	0.117	0.123	0.26
GGAAAGAGGUAAGGAUAUGCAUGGCGGAGACAUGAGGAUCACCCAUGUUGGAGACGAAAUCUAGGGUAGAAGGUACAAGGAAGG [AK SSNG2-V2-11] (Eterna round: R96, puzzle: Same State NG 2)	–	–	–	0.0446	0.133	0.128
GAGUGGUAGGGAGGAUAUGCAUUGUUAUUAAAUGCAGAAGGUUUUAACAUGAGGAUCACCCAUGUAGGACUAUUCCUGUGUUUC [Parity 67 - Jieux - Same State NG 1] (Eterna round: R96, puzzle: Same State NG 1)	–	–	–	0.0127	0.0124	0.0169
AGCUAUUAAUCAGGAUAUGGUGACAUGAGGAUCACCCAUGUAUAGAUGAUUAAAUGUGGUCUAAACUAGAAGGGAUUGCUAACA [SameState NG2 #55] (Eterna round: R96, puzzle: Same State NG 2)	–	–	–	0.247	0.214	0.219
AUUUAACAAGCUUUUUGCUCGUCUUAUAAACAUGAGGAUCACCCAUGUAAUAGCGUGAGAGUAAUUUAAUAAAUAAU [JMF 84] (puzzle: Sensor for hsa-mir-208a)	0.0137	0.0511	0.0134	–	–	–
GGAGCCGGUACUGAGGAUAUUCAUAUUAAAACAUGAGGAUCACCCAUGUAGGCCAGAAGGCCUUGGGAGAAGGCAGACCAGCUCG [Atgexeedri] (Eterna round: R96, puzzle: Same State 2)	–	–	–	0.19	0.018	0.271
